This passage reports amyloid nucleation score results from the supplement of paper PMC12042874.

± gives the uncertainty stated by the source.

The nature of one data set: amyloid nucleation score (Sup35N fusion, yeast selection) (log enrichment); library NNK3; higher = more nucleation; inactive = no reads after selection. The method, boiled down: (§1)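 The nucleation score is the log enrichment of output over input reads, calculated with DiMSum and centred on the mode score of non-aggregating sequences. Sequences with under 100 input reads were excluded. Reads came from Illumina sequencing of plasmid inserts from psi-negative yeast expressing Sup35N fused to peptides of 20 random codons, induced 24 hours with 100 μM copper sulfate and grown 7 days at 30°C without adenine and uracil.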
Regarding YPLDTVGFWEESKLFVGRGG, the amyloid nucleation score entry was “inactive”.

As for YPNIERFTETWISYVDQNRG, the amyloid nucleation score was -0.083 ± 0.58.

On to YPPTGMIWIRILVSV, for which the amyloid nucleation score entry is “inactive”.

On to YPRTSFRFKGCDKEVVSDLL, for which the amyloid nucleation score entry is “inactive”.

Regarding YPSGVYKFFAASATCWIM, the amyloid nucleation score result was “inactive”.

As to YPYCKKGWCDMKTKGRSKEG, the amyloid nucleation score entry is “inactive”.

With YQESKYIS, the amyloid nucleation score result is “inactive”.

With YQGAFS, the amyloid nucleation score was determined as 0.341 ± 0.83.

In turn, YQQSIVHVRRFTYRRAPVVA had an amyloid nucleation score of -0.46 ± 1.9.

For YRAYYSYSFRW, the amyloid nucleation score entry was “inactive”.

YRCYVVVSCWIHLNIKWLMY: the amyloid nucleation score result was “inactive”.

YRFRRDNLWCTWSSYMYMYC: the amyloid nucleation score entry was “inactive”.

As for YRLCLDSCIKIYLQGWVYVY, the amyloid nucleation score result was “inactive”.

Regarding YRLPMILKFLNWGFSYLVPF, the amyloid nucleation score result is “inactive”.

As for YRLRSICSFLGVVSYG, the amyloid nucleation score result was “inactive”.

As for YRNRTVFALSGLSQGDLPEV, the amyloid nucleation score result was “inactive”.

Turning to YRPGW, the amyloid nucleation score result was “inactive”.

In the case of YRPYC, the amyloid nucleation score result was “inactive”.

For YRRELAKSHLYMSIWRNRLP, the amyloid nucleation score result is “inactive”.

In the case of YRRKVELIRSLRW, the amyloid nucleation score entry is “inactive”.

Take YRRYPVIR: the amyloid nucleation score entry is “inactive”.

With YRSRLYNCFFGQFYMSLTNM, the amyloid nucleation score was determined as 2.07 ± 0.064.

On to YRVWTVYRVYILAGTKNIRS, for which the amyloid nucleation score result is “inactive”.

Consider YRWGRVYPSAFSLCKLRYKL, for which the amyloid nucleation score result is “inactive”.

On to YSAAEDVKWVLGFCYAGFNS, for which the amyloid nucleation score result was “inactive”.

As for YSAQFITSIGLGQKLFS, the amyloid nucleation score result is “inactive”.

With YSCAKRTRVGTRSSRKVSLA, the amyloid nucleation score result is “inactive”.

In the case of YSCTFYTLCPENI, the amyloid nucleation score turned out to be 1.85 ± 0.07.

As for YSCVVL, the amyloid nucleation score result is “inactive”.

YSDWDIYWIFMFGAGRFFMY showed an amyloid nucleation score of 3.06 ± 0.068.

As to YSDWELVSGVQLA, the amyloid nucleation score entry is “inactive”.

On to YSFMKP, for which the amyloid nucleation score entry was “inactive”.

In the case of YSFRCVSTSVNGNRVMAAVS, the amyloid nucleation score result is “inactive”.

In the case of YSFRNSIDAFRLEYKKRYRF, the amyloid nucleation score is -0.403 ± 0.93.

Turning to YSGSCNFVQVSVFKHWSGVY, the amyloid nucleation score entry was “inactive”.

As for YSGSNCLSSDEYWWRDDSLT, the amyloid nucleation score entry was “inactive”.

In the case of YSIDLFIRESDFDVHKKHIS, the amyloid nucleation score entry is “inactive”.

Take YSILYKSYYLRMHWVVASRL: the amyloid nucleation score entry was “inactive”.

Substance YSMQVICISCVLRIDIGDVA came in with an amyloid nucleation score of 0.89 ± 0.16.

As to YSRDIYVLEHV, the amyloid nucleation score result is “inactive”.

YSRLTLVAEPFYNMGVKNLM: the amyloid nucleation score entry is “inactive”.

As for YSSARTFSLHCIERLYSGYV, the amyloid nucleation score result is “inactive”.

YSSGSFCLFKWSIHR returned an amyloid nucleation score of 1.65 ± 0.065.

With YSSLW, the amyloid nucleation score entry was “inactive”.

In turn, YSTCDLGLHIGAQQERYGLG displayed an amyloid nucleation score of 0.253 ± 0.37.

Regarding YSTFLFQGYLFLEPEYSGCR, the amyloid nucleation score entry was “inactive”.

As to YSTRPSYFLDLMLYIDTWVQ, the amyloid nucleation score result is “inactive”.

YSVDGICTRAVLGPVDWVNG: the amyloid nucleation score entry was “inactive”.

In the case of YSVFAVFILRHGSRILY, the amyloid nucleation score result is “inactive”.

With YSWGRWICHNVVE, the amyloid nucleation score is -0.21 ± 0.74.

With YSWVKEYLSLLSYYCNYRVD, the amyloid nucleation score result is “inactive”.

YTERYS had an amyloid nucleation score of -0.265 ± 0.96.

Consider YTFTRV, for which the amyloid nucleation score result was “inactive”.

YTGSVRFVEM: the amyloid nucleation score result is “inactive”.

Consider YTIALTRGLKFMVINCRTFY, for which the amyloid nucleation score entry was “inactive”.

Take YTIVLLYERFQLAPTTMWMC: the amyloid nucleation score result is “inactive”.

Turning to YTLLCNPMVSKSARRLLNWI, the amyloid nucleation score result was “inactive”.

On to YTLRCDFLRNTA, for which the amyloid nucleation score entry is “inactive”.

On to YTNHFVDLGMVKLVLFTWNM, for which the amyloid nucleation score worked out at 1.63 ± 0.11.

For the substance YTPRFMISSWVLRDFIHGVS, the amyloid nucleation score entry was “inactive”.

For the substance YTPVIKCSYFTSIIGWAGPA, the amyloid nucleation score entry is “inactive”.

For YTTKRL, the amyloid nucleation score entry was “inactive”.

YTVSFYIQLCTDRQISHRGI returned an amyloid nucleation score of 2.34 ± 0.071.

Turning to YTYECRCH, the amyloid nucleation score result was “inactive”.

Turning to YVAIMLAKSKTRS, the amyloid nucleation score entry is “inactive”.

In the case of YVCCHERWVGFYSGK, the amyloid nucleation score entry was “inactive”.

Regarding YVDNLACLNSFPIMPVFKVG, the amyloid nucleation score result is “inactive”.

In the case of YVDPRGVTVSWMSIYSRRAL, the amyloid nucleation score entry is “inactive”.

YVFFLSLNIKPMLYTTLVGV registered an amyloid nucleation score of -0.138 ± 0.51.

With YVKMWHGFYFDRGNGRRDLN, the amyloid nucleation score entry was “inactive”.

In the case of YVLLVWDCRLFSVRISFRSV, the amyloid nucleation score entry is “inactive”.

Consider YVRSYLILS, for which the amyloid nucleation score result is “inactive”.

YVVNFVLL displayed an amyloid nucleation score of 2.43 ± 0.085.

Regarding YVYSRVMECKDRHYETYFVA, the amyloid nucleation score entry is “inactive”.

In the case of YWGIVVILSGDLRGYDH, the amyloid nucleation score result is “inactive”.

For the substance YWMNERLTSSKYDAGR, the amyloid nucleation score result is “inactive”.

The substance YWNMKNFCSTTIIHRKGRFG showed an amyloid nucleation score of 0.65 ± 0.16.

Take YWSGRIKGTR: the amyloid nucleation score entry was “inactive”.

Regarding YWVCPIGFFNCWLNRMTRLM, the amyloid nucleation score was 1.59 ± 0.12.

Regarding YYALKYVNLQLNKRNVTRWV, the amyloid nucleation score result is “inactive”.

On to YYFDDVTLKASTRDRVLARG, for which the amyloid nucleation score entry is “inactive”.

Turning to YYIYIYMCRLLVYIGFHFYW, the amyloid nucleation score result is “inactive”.

Take YYLGLLTYRWGLRFFYLIVS: the amyloid nucleation score result was “inactive”.

Take YYLVSSMFYMFQSNEVNGNM: the amyloid nucleation score entry is “inactive”.

In turn, YYLVYPRNIIMYKGNNFLKP had an amyloid nucleation score of 2.24 ± 0.063.

A further data set in a line: amyloid nucleation score (Sup35N fusion, yeast selection) (log enrichment); library NNK2; higher = more nucleation; inactive = no reads after selection. In short, it runs like this: as §1
For AADSRYGGNGCFRSMLFALI, the amyloid nucleation score came to 0.817 ± 0.45.

As for AAFLNWVVCEIENEEGMSWL, the amyloid nucleation score entry was “inactive”.

Take AAFTRTSP: the amyloid nucleation score turned out to be 0.858 ± 0.27.

In turn, AAILFSGDVLCLLRCYIAIK registered an amyloid nucleation score of -0.291 ± 0.74.

On to AAIRH, for which the amyloid nucleation score was -0.328 ± 0.49.

With AASNQMSQ, the amyloid nucleation score entry is “inactive”.

Consider AASRWVVSHKYRWWMMRLMK, for which the amyloid nucleation score came out at 0.302 ± 0.23.

Consider AASWTPSCNCPPWVFHGWLL, for which the amyloid nucleation score came out at 0.16 ± 0.8.

On to ACDVDAMFTKMYSIFFR, for which the amyloid nucleation score came to 0.479 ± 0.62.

ACHRFYLMKSML displayed an amyloid nucleation score of 1.28 ± 0.36.

Consider ACNFQVCGWERQSSRFR, for which the amyloid nucleation score was found to be 3.14 ± 0.087.

In turn, ACQYLGLETPKWCGINRWGL returned an amyloid nucleation score of 0.324 ± 0.26.

Substance ACRLVYNLGRVHLGNHSDIL came in with an amyloid nucleation score of -0.225 ± 1.

In turn, ADEVLYYGCVSSCLMFGVLI came in with an amyloid nucleation score of -0.069 ± 0.35.

ADFFVLDMWLTYCMKTLFSC had an amyloid nucleation score of -1.27 ± 0.48.

In turn, ADSVYAVRRKAV returned an amyloid nucleation score of 0.356 ± 0.8.

As for AEAISQLEAMR, the amyloid nucleation score is 1.13 ± 0.39.

As to AEAWGVFYHWHDT, the amyloid nucleation score was -0.493 ± 0.53.

AELLYMFWACNFSWSMPL gave an amyloid nucleation score of -0.986 ± 0.76.

With AESVCYQMTCIPCLLIFNTV, the amyloid nucleation score stood at 8.966 ± 0.054.

Substance AETLPFWGNG came in with an amyloid nucleation score of 0.695 ± 0.57.

For AFLNFTDRKSQWKVMVIEFL, the amyloid nucleation score came to 3.3 ± 0.096.

For AFRVNWYDQNRYVEVKG, the amyloid nucleation score was 0.292 ± 0.4.

In turn, AFSVFSWSFQWQTSCWQICE returned an amyloid nucleation score of 5.022 ± 0.038.

Turning to AFVNVVGLVYSF, the amyloid nucleation score was -1.42 ± 0.45.

AFYMIRH gave an amyloid nucleation score of 3.66 ± 0.076.

In turn, AGEQEVDGPVIQRWSGFTTR gave an amyloid nucleation score of 2.2 ± 0.21.

For the substance AGGWVFFQGESSSLSNTSGS, the amyloid nucleation score entry is “inactive”.

Regarding AGLRGIHEIGLLDAKWDDNH, the amyloid nucleation score result was “inactive”.

AGPWGVSTFYAVHLLASLYP displayed an amyloid nucleation score of -0.446 ± 0.79.

The substance AGRNIGIHIVGLDRQRSSAN returned an amyloid nucleation score of 0.278 ± 0.31.

As to AGVSLFVHGNL, the amyloid nucleation score is 4.45 ± 0.095.

AHAPGPNEA had an amyloid nucleation score of 0.276 ± 0.8.

As for AHHLSFGVNDCSTCERSVQ, the amyloid nucleation score is 0.77 ± 0.28.

For the substance AHLRITFSMSMNMQLFMVLR, the amyloid nucleation score came to 0.587 ± 0.48.

Substance AHQHWQRGFEEHPEIRFIHW returned an amyloid nucleation score of 4.29 ± 0.11.

AIASLTRTFSA had an amyloid nucleation score of 0.167 ± 0.42.

For AIIPRMLKYRERGKPTKRDT, the amyloid nucleation score was determined as 0.291 ± 0.24.

For AILGLYVYMGSWHKGVSGVI, the amyloid nucleation score result is “inactive”.

Substance AIQLCLWSKRSQGRWFTLPV displayed an amyloid nucleation score of 0.82 ± 0.47.

In turn, AISRRALKTHHFKWGCNVG yielded an amyloid nucleation score of 0.266 ± 0.19.

Consider AIWSVLYGGRYTMPHSIFGA, for which the amyloid nucleation score was 0.448 ± 0.38.

On to AIWVYRPLVIQGTFGIRPA, for which the amyloid nucleation score was determined as 6.15 ± 0.08.

With AKGMGPKNDTTYYFPVSVFE, the amyloid nucleation score is -0.213 ± 0.48.

With ALCKMQLITSSYQGPATEDL, the amyloid nucleation score was -0.168 ± 0.76.

ALECHIRLKWRVSVGPGVLV came in with an amyloid nucleation score of 1.17 ± 0.28.

With ALFIEISPLTINLFTNAKSL, the amyloid nucleation score is -1.06 ± 0.76.
